Assay results: IntAct's records for PubMed 27107116

B1: Carbon catabolite-derepressing protein kinase (Saccharomyces cerevisiae), P06782 (parent)
chain: MSSNNNTNTAPANANSSHHHHHHHHHHHHHGHGGSNSTLNNPKSSLADGAHIGNYQIVKTLGEGSFGKVKLAYHTTTGQKVALKIINKKVLAKSDMQGRIEREISYLRLLRHPHIIKLYDVIKSKDEIIMVIEYAGNELFDYIVQRDKMSEQEARRFFQQIISAVEYCHRHKIVHRDLKPENLLLDEHLNVKIADFGLSNIMTDGNFLKTSCGSPNYAAPEVISGKLYAGPEVDVWSCGVILYVMLCRRLPFDDESIPVLFKNISNGVYTLPKFLSPGAAGLIKRMLIVNPLNRISIHEIMQDDWFKVDLPEYLLPPDLKPHPEEENENNDSKKDGSSPDNDEIDDNLVNILSSTMGYEKDEIYESLESSEDTPAFNEIRDAYMLIKENKSLIKDMKANKSVSDELDTFLSQSPPTFQQQSKSHQKSQVDHETAKQHARRMASAITQQRTYHQSPFMDQYKEEDSTVSILPTSLPQIHRANMLAQGSPAASKISPLVTKKSKTRWHFGIRSRSYPLDVMGEIYIALKNLGAEWAKPSEEDLWTIKLRWKYDIGNKTNTNEKIPDLMKMVIQLFQIETNNYLVDFKFDGWESSYGDDTTVSNISEDEMSTFSAYPFLHLTTKLIMELAVNSQSN
partner: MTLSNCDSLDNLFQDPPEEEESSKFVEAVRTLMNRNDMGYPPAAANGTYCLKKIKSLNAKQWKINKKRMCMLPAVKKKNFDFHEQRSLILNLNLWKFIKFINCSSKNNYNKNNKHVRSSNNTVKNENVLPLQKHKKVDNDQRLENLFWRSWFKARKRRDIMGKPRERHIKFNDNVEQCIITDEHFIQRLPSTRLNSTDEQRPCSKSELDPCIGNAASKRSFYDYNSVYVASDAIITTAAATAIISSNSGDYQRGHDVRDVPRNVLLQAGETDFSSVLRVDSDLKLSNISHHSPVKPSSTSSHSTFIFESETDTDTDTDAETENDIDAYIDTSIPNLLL
B2: Protein REG2 (Saccharomyces cerevisiae), P38232 (parent)
chain: B1 partner
partner: B1 chain
B3: Protein REG2 (Saccharomyces cerevisiae), P38232 (parent)
chain: B1 partner

Variants of: B1
Details: with reg2_yeast REG2, P38232

effect of a mutation on the interaction | Variant
disrupting interaction strength | T210A
decreasing interaction strength | K84R

Variants of: B2
Details: with snf1_yeast SNF1, P06782

effect of a mutation on the interaction | Variant
with no effect | I169M;F171A

Variants of: B3
Details: with pp12_yeast GLC7, P32598
pp12_yeast GLC7, P32598, sequence (P32598 whole entry): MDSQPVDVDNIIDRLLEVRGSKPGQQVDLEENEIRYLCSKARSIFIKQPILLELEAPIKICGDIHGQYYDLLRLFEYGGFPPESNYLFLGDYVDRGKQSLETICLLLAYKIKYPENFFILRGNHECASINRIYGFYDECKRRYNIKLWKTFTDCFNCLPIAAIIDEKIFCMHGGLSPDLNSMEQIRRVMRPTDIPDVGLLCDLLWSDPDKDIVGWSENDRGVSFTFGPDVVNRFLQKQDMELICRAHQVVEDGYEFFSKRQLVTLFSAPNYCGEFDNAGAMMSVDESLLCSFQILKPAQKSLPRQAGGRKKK

effect of a mutation on the interaction | Variant
disrupting interaction strength | I169M;F171A
